US5807729A, “Metalloprotease having increased activity” (Novo Nordisk A/S, priority 1995, dated 1998)
Read-outs that look alike come from different tables or passages of the source.

Tests used:
FTC-labeled casein [1] = target: FTC-labeled casein
[2] = target: pro-trypsin-like Fusarium oxysporum protease (Fusarium oxysporum) (UniProt P35049)
succinylated casein [3] = target: succinylated casein
[4] = tested on: Bacillus stearothermophilus thermolysin; assay: Inhibitor analysis of B.s. thermolysin; assay type: biochemical; conditions: for type of inhibition, B.s. Thermolysin: kinetic analysis; for Ki: read-out: Inhibition Constant (Ki), B.s. Thermolysin
Procedure: (§1) Other metalloprotease inhibitors are utilized to further differentiate the p45 metalloprotease from the Bacillus thermolysins. Inhibition constants for 1,10-phenanthroline, phosphoramidon, and CdCl2 are determined to be 130 uM, 1 uM, and 67 uM against the p45 Metalloprotease (Table 3). Inhibition constants for 1,10-phenanthroline, phosphoramidon, and CdCl2 are 85 uM, 26 uM, and 2 uM against the Bacillus stearothermophilus thermolysin. […] It is of interest to note that phophoramidon is an effective inhibitor of many bacterial metallo-endopeptidases but few of mammalian origin. Also, it is interesting that CdCl2 is found to be such an effective inhibitor of metalloproteases. No evidence of CdCl2 inhibition of metalloproteases has been found in the literature.

p45 Metalloprotease = p45 Metalloprotease (Fusarium oxysporum, UniProt M1UZ70); assay: Inhibitor analysis of the p45 metalloprotease; assay type: biochemical; design: precursor 632 aa (18 signal, 226 pro); native or A. oryzae-expressed with same N-terminus; conditions: for type of inhibition, p45 Maturase: kinetic analysis
Procedure: as §1

succinylated casein [5] = target: succinylated casein; remark: listed apart in the source
[6] = tested on: Fusarium oxysporum metalloprotease; assay: Inhibition of Fusarium metalloprotease with 1,10-phenanthroline / EDTA and reactivation with Zn2+; assay type: biochemical
Procedure: (§2) Metalloprotease activity is measured as released trypsin activity from pro-trypsin-like Fusarium oxysporum protease deposited at the Deutsche Sammlung von Mikroorganismen, Gottingen, Germany under the number DSM 2672, after a 30-60 min pre-incubation at 25° C. in 0.1M Tris, 2 mM CaCl2, pH 7 (at lower pH, 100 mM borate, 10 mM DMG, 2 mM CaCl2 is used).
(§3) Metalloproteases contain a catalytic zinc metal center which participates in the hydrolysis of the peptide backbone. The active zinc center differentiates these proteases from calpains whose activities are dependent upon the presence of calcium. Confirmation of a protease as a metallo-protease is loss of proteolytic activity accomplished by removal of the zinc center with 1,10-phenanthroline (1 mM) followed by titration with Zn^2+ (0.1-100 μM) to restore full activity.
(§4) However, when combined the metalloprotease cleaves recombinant pro-trypsin-like Fusarium oxysporum protease disclosed, supra to yield the active tryptic protease. Metalloprotease activity is halted upon the addition of 1 mM 1,10-phenanthroline (Table 1).

[7] = tested on: pro-trypsin-like Fusarium oxysporum protease; assay: Proteolytic enzyme assay: tryptic activity released from pro-trypsin-like protease, L-BAPNA, 405 nm; assay type: biochemical
Procedure: as §2, §3, §4

succinylated casein [8] = assay: Casein hydrolysis, succinylated casein assay (QuantiCleave, BCA, 600 nm); assay type: biochemical; conditions: for maximum absorbance, casein hydrolysis: pH 6.5, room temperature, 40 minutes, FIG. 8
Procedure: 400 ul of casein solution (Pierce) is added to small test tubes along with 100 ul of protease. The tubes are vortexed and incubated at room temperature for 40 minutes. The incubation (and assay) buffer is 0.1 M borate, 2 mM CaCl2, and 10 mM dimethylglutarate, pH 6.5. At the end of the incubation, 60 microliters of trichloroacetic acid (100% w/v) is added, and the tubes are vortexed and centrifuged for 1 minute at 5000×g. 20 microliters of the resulting supernatant is placed into a microtiter plate well with 200 microliters of the BCA working reagent (Pierce). The plates are then vortexed and incubated another 30 minutes, then read at 600 nm using a Biomek 1000 microtiter plate reader.
400 microliters of casein solution (Pierce) are added to small test tubes along with 100 microliters of protease in buffer "A" (0.1M borate, 2 mM CaCl2 and 10 mM dimethylglutaric acid). At the end of the incubation, 60 microliters of trichloroacetic acid (100% w/v) is added, and the tubes are vortexed and centrifuged for 1 minute at 5000×g. 20 microliters of the resulting supernatant is placed into a microtiter plate well with 200 microliters of the BCA working reagent (Pierce). The plates are then vortexed and incubated another 30 minutes, then read at 600 nm using a Biomek 1000 microtiter plate reader.

FTC-labeled casein [9] = assay: Thermal stability profile, FTC-casein hydrolysis; assay type: biochemical; conditions: 15 minutes at various temperatures, Universal buffer pH 7; FIG. 9
Procedure: Purified p45 metalloprotease or B.t. thermolysin (Boehringer Mannheim) (50 microliters, 0.1 mg/ml) are incubated at various temperatures for 15-minutes in Universal buffer, pH 7. Ten microliters of sample are then added to 30 microliters of Universal pH buffer (pH 7) and 20 microliters of FTC-labeled casein and are incubated at 37° C. for 1 hour. 150 microliters of 5% TCA is added to acidify and precipitate casein (1 hour at room temperature). […] Samples are then analyzed on the fluorimeter (slit width=2.5 nm; excitation freq.=490 nm; emission freq.=525 nm; integration time=2 sec).

[10] = tested on: Ac-Pro-Leu-Gly[2-mercapto-4-methyl-pentanoyl]-Leu-Gly-OEt; assay: Hydrolysis of the thermolytic merc-peptide substrate (Ellman's reagent, 405 nm); assay type: biochemical
Procedure: The thermolytic substrate Ac-Pro-Leu-Gly[2-mercapto-4-methyl-pentanoyl]-Leu-Gly-OEt (i.e. the merc-peptide) is also used to further characterize the p45 metalloprotease and B.t. thermolysin.
Reaction mixtures contain 100 microliters of Ac-Pro-Leu-Gly[2-mercapto-4-methyl-pentanoyl]-Leu-Gly-OEt (1 mM, and 1 mM Ellman's reagent) and 100 microliters of either B.t. thermolysin or purified p45 metalloprotease (0-3 ug/ml) in sample buffer.

[11] = tested on: FAGLA: N-(3-[2-Furyl]Acryloyl)-Gly-Leu amide; assay: FAGLA hydrolysis (345 nm); assay type: biochemical
Procedure: The thermolytic substrate FAGLA: N-(3-[2-Furyl]Acryloyl)-Gly-Leu amide is used to further characterize the p45 metalloprotease and B.t. thermolysin. Reaction mixtures contain 100 microliters of N-(3-[2-Furyl]Acryloyl)-Gly-Leu amide (FAGLA) (2 mM) and 100 microliters of various concentrations of either thermolysin (Boehringer Mannheim) or purified p45 metalloprotease. Thermolytic activity is determined as a decrease in absorbance at 345 nm on the recording spectrometer for one minute(Shimadzu, UV160U). The linear range of the assay for thermolysin is 10-500 ug/ml thermolysin in the assay mix.

FTC-labeled casein [12] = assay: Protease analysis using FTC-labeled casein; assay type: biochemical
Procedure: Samples are incubated at room temperature for 30 minutes.

[13] = tested on: succinyl-Ala-Ala-Ala-p-nitroanilide; assay: Hydrolysis of succinyl-Ala-Ala-Ala-p-nitroanilide; assay type: biochemical
Description: Both p45 metalloprotease and a neutral zinc endopeptidase secreted by Flavobacterium meningosepticum poorly hydrolyze the substrate N-[3-(2--furyl)acryloyl]-Leu-Gly-NH2. However, the neutral zinc endopeptidase secreted by Flavobacterium meningosepticum will hydrolyze the vertebrate elastase substrate succinyl-Ala-Ala-Ala-p-nitroanilide, a substrate that thermolysin cannot hydrolyze (Table 2). Therefore, succinyl-Ala-Ala-Ala-p-nitroanilide hydrolysis by the p45 metalloprotease is investigated. […] This effect further differentiates the p45 metalloprotease from other existing metalloproteases.

[14] = tested on: pro-trypsin-like F. oxysporum protease; assay: Processing of pro-trypsin-like F. oxysporum protease to active trypsin-like protease
Procedure: Activatable pro-trypsin-like F. oxysporum protease is determined in microtiter wells as released trypsin-like F. oxysporum protease (tryptic) activity from pro-trypsin-like F. oxysporum protease after a 40 minute pre-incubation at room temperature with purified Fusarium oxysporum metalloprotease (approximately 6 ug).
Processed pro-trypsin-like F. oxysporum protease(i.e. mature trypsin-like F. oxysporum protease) activity is determined directly from microtiter plates containing the pre-incubated metalloprotease/pro-trypsin-like F. oxysporum protease cocktail (total volume=100 microliters), and 100 microliters of substrate (87 mg/ml.L-BAPNA stock in DMSO diluted 50-fold in sample buffer). Again, active trypsin-like F. oxysporum protease is determined as an increase in absorbance at 405 nm immediately after L-BAPNA addition.
Purified pro-trypsin-like F. oxysporum protease is added to fresh A. oryzae fermentation broths containing the recombinant p45 metalloprotease (approximately 90 mg/L) and incubated for either 1, 2, or 3 hours at room temperature. Levels of pro-trypsin-like F. oxysporum protease in the incubation mixtures range from 100 ug/ml to 13 mg/ml.
Purified pro-trypsin-like F. oxysporum protease (100 ug/ml) is added to various amounts of either purified recombinant p45 metalloprotease or purified B.s. metalloprotease.

How did the Specific Activity (fluorescence released from FTC-casein) (FTC-labeled casein [1]) turn out when “neutral metalloprotease from Bacillus stearothermophilus (enzyme)” was run?
The Specific Activity (fluorescence released from FTC-casein) was 220 FU/min·mg.

What about the Specific Activity (released trypsin activity, L-BAPNA) (g trypsin/min*mg) [2] of the same molecule?
Its Specific Activity (released trypsin activity, L-BAPNA) (g trypsin/min*mg) is 0.018.

And the maximum absorbance, succinylated casein hydrolysis (succinylated casein [3])?
Its maximum absorbance, succinylated casein hydrolysis is 0.47 O.D.

Which results are given for `CC(C)C[C@H](NP(=O)(O)O[C@@H]1O[C@@H](C)[C@H](O)[C@@H](O)[C@H]1O)C(=O)N[C@@H](Cc1c[nH]c2ccccc12)C(=O)O` [phosphoramidon]?
type of inhibition, B.s. Thermolysin [4]: Noncompetitive; Ki [4]: 26 µM; Ki (p45 Metalloprotease): 1 µM; type of inhibition, p45 Maturase (p45 Metalloprotease): Noncompetitive

For “p45 metalloprotease from Fusarium oxysporum (enzyme)”, which Specific Activity (fluorescence released from FTC-casein) (FTC-labeled casein [1]) is on record?
The Specific Activity (fluorescence released from FTC-casein) was 170 FU/min·mg.

What about the Specific Activity (released trypsin activity, L-BAPNA) (g trypsin/min*mg) [2] of the same molecule?
Its Specific Activity (released trypsin activity, L-BAPNA) (g trypsin/min*mg) is 1.2.

What about the maximum absorbance, succinylated casein hydrolysis (succinylated casein [3]) of the same molecule?
Its maximum absorbance, succinylated casein hydrolysis is 0.3 O.D.

dispase (enzyme) was tested. Which maximum absorbance, succinylated casein hydrolysis (succinylated casein [5]) did it give?
Its maximum absorbance, succinylated casein hydrolysis is 0.47 absorbance.

How did the “reactivation of the 1,10-phenanthroline-inhibited Fusarium metalloprotease” value ([6]; addition of 1 mM Zn2+) turn out when `[Zn+2]` [Zn^2+] was run?
Its value is “full reactivation”.

`O=C(O)CN(CCN(CC(=O)O)CC(=O)O)CC(=O)O` [EDTA] was tested. Which “metalloprotease activity upon addition of the inhibitor” value ([6]; inhibitor 1 mM) did it give?
Its value is “Analogous results”.

Which results are given for `[Cl][Cd][Cl]` [CdCl2]?
type of inhibition, B.s. Thermolysin [4]: Competitive; Ki [4]: 2 µM; type of inhibition, p45 Maturase (p45 Metalloprotease): Noncompetitive; Ki (p45 Metalloprotease; read-out: Inhibition Constant (Ki), p45 Maturase): 67 µM

B1: Pro-trypsin-like F. oxysporum protease: recombinant proenzyme form of the trypsin-like F. oxysporum protease (protein)
chain: APQEIPNIVGGTSASAGDFPFIVSISRNGGPWCGGSLLNANTVLTAAHCVSGYAQSGFQIRAGSLSRTSGGITSSLSSVRVHPSYSGNNNDLAILKLSTSIPSGGNIGYARLAASGSDPVAGSSATVAGWGATSEGGSSTPVNLLKVTVPIVSRATCRAQYGTSAITNQMFCAGVSSGGKDSCQGDSGGPIVDSSNTLIGAVSWGNGCARPNYSGVYASVGALRSFIDTYA
Which “tryptic activity of the sample alone” value ([7]; sample alone) does the source give for B1 here?
Its value is “do not contain any tryptic activity”.

What about the “Tryptic Activity” value ([7]; without 1,10-phenanthroline, without Zn2+) of the same molecule?
Its value is 1.26 Δ Abs/min × 10^-4.

B2: Thermolysin from Bacillus thermoproteolyticus (enzyme)
chain: ITGTSTVGVGRGVLGDQKNINTTYSTYYYLQDNTRGNGIFTYDAKYRTTLPGSLWADADNQFFASYDAPAVDAHYYAGVTYDYYKNVHNRLSYDGNNAAIRSSVHYSQGYNNAFWNGSQMVYGDGDGQTFIPLSGGIDVVAHELTHAVTDYTAGLIYQNESGAINEAISDIFGTLVEFYANKNPDWEIGEDVYTPGISGDSLRSMSDPAKYGDPDHYSKRYTGTQDNGGVHINSGIINKAAYLISQGGTHYGVSVVGIGRDKLGKIFYRALTQYLTPTSNFSQLRAAAVQSATDLYGSTSQEVASVKQAFDAVGVK
B2 was tested. Which maximum absorbance, succinylated casein hydrolysis (succinylated casein [5]) did it give?
Its maximum absorbance, succinylated casein hydrolysis is 0.47 absorbance.

B3: thermolysin: Thermolysin from Bacillus thermoproteolyticus (B.t.), purchased from Boehringer Mannheim (protein)
chain: ITGTSTVGVGRGVLGDQKNINTTYSTYYYLQDNTRGNGIFTYDAKYRTTLPGSLWADADNQFFASYDAPAVDAHYYAGVTYDYYKNVHNRLSYDGNNAAIRSSVHYSQGYNNAFWNGSQMVYGDGDGQTFIPLSGGIDVVAHELTHAVTDYTAGLIYQNESGAINEAISDIFGTLVEFYANKNPDWEIGEDVYTPGISGDSLRSMSDPAKYGDPDHYSKRYTGTQDNGGVHINSGIINKAAYLISQGGTHYGVSVVGIGRDKLGKIFYRALTQYLTPTSNFSQLRAAAVQSATDLYGSTSQEVASVKQAFDAVGVK
Which results are given for B3?
maximum absorbance, casein hydrolysis (succinylated casein [8]): ~0.47 O.D. units; optimum temperature for hydrolysis of FTC-casein (FTC-labeled casein [9]): 80 °C

B4: B.s. Thermolysin: thermolysin / neutral metalloprotease from Bacillus stearothermophilus (B.s.) (protein, UniProt P43133 236-551, looked up)
Thermolysin: ITGTSTVGVGRGVLGDQKNINTTYSTYYYLQDNTRGNGIFTYDAKYRTTLPGSLWADADNQFFASYDAPAVDAHYYAGVTYDYYKNVHNRLSYDGNNAAIRSSVHYSQGYNNAFWNGSQMVYGDGDGQTFIPLSGGIDVVAHELTHAVTDYTAGLIYQNESGAINEAISDIFGTLVEFYANKNPDWEIGEDVYTPGISGDSLRSMSDPAKYGDPDHYSKRYTGTQDNGGVHINSGIINKAAYLISQGGTHYGVSVVGIGRDKLGKIFYRALTQYLTPTSNFSQLRAAAVQSATDLYGSTSQEVASVKQAFDAVGVK
With B4 as the molecule, how does the “Specific Activity, substrate Succinylated Casein (maximal level)” value (succinylated casein [8]) read?
Its value is 0.47 O.D.

What about the “maximum absorbance, casein hydrolysis” value (succinylated casein [8]) of the same molecule?
Its value is about 0.47 O.D. units.

What about the “Specific Activity, substrate merc-peptide” value [10] of the same molecule?
Its value is 2.9 AU/min*mg.

And the “Specific Activity, substrate FAGLA” value [11]?
The value was 227 -AU/sec*mg.

And the “Specific Activity, substrate FTC-Labelled Casein” value (FTC-labeled casein [12])?
The value was 220 FU/min*mg.

And the “Specific Activity, substrate Ala-Ala-Ala-pNA” value [13]?
The value was under 2 pmol pNA/min*mg.

What about the “hydrolysis of succinyl-Ala-Ala-Ala-p-nitroanilide” value ([13]; substrate 4.4 mM in 0.1M Tris, pH 8) of the same molecule?
The value was “neither, the p45 metalloprotease nor the B.s. thermolysin would hydrolyze”.

And the “Specific Activity, substrate pro-trypsin” value [14]?
Its value is “.018 g trypsin/min*mg”.
